Results: article PMC8244865, “Recruitment of phospholipase Cγ1 to the non-structural membrane protein pK15 of Kaposi Sarcoma-associated herpesvirus promotes its Src-dependent phosphorylation” (PLoS Pathogens, 2021)

Assays:
Type in all cases: binding
[1] = system: PLCγ1 R^586L and R^694L double mutant (DM) (SA and tSH2); assay: AlphaLISA, SA and tSH2 double mutant; conditions: phosphorylated; 300 nM each protein
Protocol: (§1) Fig 4 The PLCγ1 cSH2 domain is required for the binding of PLCγ1 to phosphorylated pK15 in vitro and may serve as a dominant-negative inhibitor. GST-fused pK15 cytoplasmic tail WT (A), or its truncated mutant N2 [51] (B), were phosphorylated in vitro by 2xStrep-Src and an AlphaLISA was performed with the indicated His-tagged fragments of PLCγ1. Mean and standard deviation from at least two independent experiments with two technical replicates each are depicted. GST fusion proteins of the N1 (C) or N2 (D) truncation mutants of the pK15 cytoplasmic tail were phosphorylated in vitro by 2xStrep-Src and their interaction with recombinant purified PLCγ1 tSH2 (tandem SH2) or SA (γ-specific array) domains was measured by AlphaLISA in the presence of increasing concentrations (300 nM, 600 nM, 900 nM, 1200 nM) of the purified PLCγ1 cSH2. […] After 48h lysates were collected and analysed by Western blot using an antibody to PLCγ1 pY^783 to assess the level of PLCγ1 phosphorylation. (F) The intensities of the pPLCγ1 bands shown in panel E were quantified by densitometry, normalized to the values obtained with the empty vector (EV) in the presence of pK15, and plotted as relative values. […]
(§2) His-tagged PLCγ1 (SA, tSH2 or the isolated SH2 domains) was incubated at room temperature with GST-tagged K15P or its mutants for 1 hour. […] Emission at 615 nm was detected on BioTek Synergy 2 plate reader.

PLCγ1 SA R586L or R694L = assay: GST-pulldown, PLCγ1 SA R586L or R694L; conditions: phosphorylated, HEK 293T, versus WT
Protocol: Fig 3 Contribution of individual PLCγ1 SH2 domains to the interaction with phosphorylated pK15. The pK15 CT fused to GST, its Y^481F mutant, or GST alone were bound to glutathione beads, phosphorylated in vitro (+) or left unphosphorylated (-), and a GST pulldown was performed 32h after transfection into HEK-293T cells of expression vectors for S-tagged full-length PLCγ1 (FL) (A) or PLCγ1 SA (B) containing the indicated mutations. (C) pK15 CT WT, its Y^481F mutant or GST were bound to glutathione beads, phosphorylated in vitro (+) or left unphosphorylated (-), and used for a GST pulldown assay 32h after transfecting HEK 293T cells with expression vectors for S-tagged individual PLCγ1 nSH2 or cSH2 domains. […]
HEK293T cells were washed once with cold PBS 30 hours after transfection, lysed in IP buffer (50 mM Tris pH7.6, 60 mM NaCl, 6.25 mM EDTA, 1% (v/v) glycerol, 0.04% (v/v) NP-40) on ice for 30 minutes, sonicated shortly and cleared by centrifugation for 10 minutes at 20.000g, 4°C. […] Beads were then washed 5 times in 500 μl IP buffer (or for purified proteins IP buffer with 200 mM NaCl), suspended in 10 μl of 5x Laemmli sample buffer (60 mM Tris pH6.8, 24% (v/v) glycerol, 2% (v/v) SDS, 5% (v/v) β-mercaptoethanol, 0.01% Bromphenol Blue) and analysed by western blot.

PLCγ1 cSH2 R^694L = assay: AlphaLISA, isolated PLCγ1 cSH2 R694L; conditions: phosphorylated; 300 nM each protein
Protocol: as §1, §2

PLCγ1 cSH2 domain = assay: AlphaLISA, isolated PLCγ1 cSH2; conditions: phosphorylated, 300 nM each protein, domain tested individually
Protocol: as §1, §2

[2] = system: PLCγ1 SA and PLCγ1 tSH2, nSH2 R^586L mutant; assay: AlphaLISA, SA and tSH2 R586L mutant; conditions: phosphorylated; 300 nM each protein; versus wt PLCγ1 SA and tSH2
Protocol: as §1, §2

PLCγ1 nSH2 domain = assay: AlphaLISA, isolated PLCγ1 nSH2; conditions: phosphorylated; 300 nM each protein; domain tested individually
Protocol: as §1, §2

B1: pK15 CT^WT: pK15 cytoplasmic tail fused to GST at its N-terminal end, phosphorylated in vitro by Src (protein)
chain: SQLLNEVELQEVNRDPPNVFGYASILVSGAEESREPSPQPDQSGMSILRVDGGSAFRIDTAQAATQPTDDLYEEVLFPRN
modifications: tyrosine-phosphorylated in vitro by Src; sites not stated for this construct; left off: GST, N-terminal, kept
interaction (AlphaLISA) [1]: failed to interact | binding of mutants (GST-pulldown) (PLCγ1 SA R586L or R694L): strongly reduced binding | interaction (AlphaLISA) (PLCγ1 cSH2 R^694L): abolished | interaction (AlphaLISA) (PLCγ1 cSH2 domain): only the PLCγ1 cSH2 domain (and not the nSH2 domain) interacted | interaction (AlphaLISA) (PLCγ1 cSH2 domain; listed as pK15 CT^N2): did interact with the tSH2 and cSH2 domains | interaction (AlphaLISA) [2]: to a similar extent as wt PLCγ1 SA and PLCγ1 tSH2 | interaction (AlphaLISA) (PLCγ1 nSH2 domain): not the nSH2 domain
